In paper PMC4418518 (2015):
Where two headings read alike, the source gives them in different places.

Columns and labels:
Assay in all cases: co-sedimentation
[1] = molecular target: T1, F-actin (Saccharomyces cerevisiae, UniProt P60010)
[2] = molecular target: actin (Saccharomyces cerevisiae, UniProt P60010)
[3] = molecular target: T1, F-actin; remark: listed apart in the source

B1: Vinculin tail (VT) 881-1066 (protein)
chain: KDEEFPEQKAGEAINQPMMMAARQLHDEARKWSSKPVTVINEAAEAGVDIDEEDDADVEFSLPSDIEDDYEPELLLMPTNQPVNQPILAAAQSLHREATKWSSKGNDIIAAAKRMALLMAEMSRLVRGGSGNKRALIQCAKDIAKASDEVTRLAKEVAKQCTDKRIRTNLLQVCERIPTISTQLKI
Q: How did the Kd [1] turn out when B1 was run?
A: 1480 nM

Q: What about the Kd [2] of the same binder?
A: 370 nM

Q: What about the Kd [3] of the same binder?
A: 1310 nM
